Like-named read-outs stand apart in the source and are kept apart here.
T1: B7H3 (human, UniProt Q5ZPR3 29-534)
T1 sequence (looked up): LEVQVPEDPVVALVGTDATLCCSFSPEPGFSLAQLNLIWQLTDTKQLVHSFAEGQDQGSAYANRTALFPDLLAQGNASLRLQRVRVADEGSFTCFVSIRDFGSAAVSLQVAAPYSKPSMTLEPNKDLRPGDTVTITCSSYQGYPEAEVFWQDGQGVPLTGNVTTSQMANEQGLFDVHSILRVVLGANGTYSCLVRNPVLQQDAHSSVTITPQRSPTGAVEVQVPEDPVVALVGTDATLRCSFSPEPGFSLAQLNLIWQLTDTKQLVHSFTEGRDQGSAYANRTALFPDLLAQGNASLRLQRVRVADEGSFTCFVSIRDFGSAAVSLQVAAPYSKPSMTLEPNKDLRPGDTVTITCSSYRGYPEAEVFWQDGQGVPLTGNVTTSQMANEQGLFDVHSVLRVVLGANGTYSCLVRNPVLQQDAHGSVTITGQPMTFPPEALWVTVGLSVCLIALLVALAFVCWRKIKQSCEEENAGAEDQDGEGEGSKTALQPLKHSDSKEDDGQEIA


Legend:
[1] = target: T1, B7H3; test: cell-based or functional assay
[2] = target: T1, B7H3; test: cell-based or functional assay; remark: listed apart in the source

Binder | EC50 (nM), ADC direct killing, Capan-1 (Low), 3D [1] | EC50 (nM), ADC direct killing, NCI-H1650 (High), 3D [1] | Emax (%), ADC direct killing, Capan-1 (Low), 3D [1] | Emax (%), ADC direct killing, NCI-H1650 (High), 3D [1] | EC50 (nM), ADC direct killing, Capan-1 (Low), 3D [2] | EC50 (nM), ADC direct killing, NCI-H1650 (High), 3D [2] | Emax (%), ADC direct killing, Capan-1 (Low), 3D [2] | Emax (%), ADC direct killing, NCI-H1650 (High), 3D [2]
ADC4-B (antibody, human IgG1, kappa, V domains shown, conjugator-linker-payload on cysteine thiols after TCEP reduction (DAR8); residues not numbered; structure given only as a drawing) VH: QVQLVQSGAEVKKPGSSVKVSCKASGYTFTNYVMHWVRQAPGQGLEWMGYINPYNDDVKYNEKFKGRVTITADESTSTAYMELSSLRSEDTAVYYCARWGYYGSPLYYFDYWGQGTLVTVSS VL: EIVLTQSPATLSLSPGERATLSCRASSRLIYMHWYQQKPGQAPRPLIYATSNLASGIPARFSGSGSGTDFTLTISSLEPEDFAVYYCQQWNSNPPTFGQGTKVEIKR | 0.5 nM | 3.9 nM | 84.9% | 75.3% | 1.1 nM | 4.5 nM | 74.3% | 66.5%
ADC4-12 (antibody, human IgG1, kappa, V domains shown, conjugator-linker-payload on cysteine thiols after TCEP reduction (DAR8), maleimide hydrolysed; residues not numbered; structure given only as a drawing) VH: QVQLVQSGAEVKKPGSSVKVSCKASGYTFTNYVMHWVRQAPGQGLEWMGYINPYNDDVKYNEKFKGRVTITADESTSTAYMELSSLRSEDTAVYYCARWGYYGSPLYYFDYWGQGTLVTVSS VL: EIVLTQSPATLSLSPGERATLSCRASSRLIYMHWYQQKPGQAPRPLIYATSNLASGIPARFSGSGSGTDFTLTISSLEPEDFAVYYCQQWNSNPPTFGQGTKVEIKR | – | – | – | – | – | 2.3 nM | 61.9% | 83.2%
ADC4-14 (antibody, human IgG1, kappa, V domains shown, conjugator-linker-payload on cysteine thiols after TCEP reduction (DAR8), maleimide hydrolysed; residues not numbered; structure given only as a drawing) VH: QVQLVQSGAEVKKPGSSVKVSCKASGYTFTNYVMHWVRQAPGQGLEWMGYINPYNDDVKYNEKFKGRVTITADESTSTAYMELSSLRSEDTAVYYCARWGYYGSPLYYFDYWGQGTLVTVSS VL: EIVLTQSPATLSLSPGERATLSCRASSRLIYMHWYQQKPGQAPRPLIYATSNLASGIPARFSGSGSGTDFTLTISSLEPEDFAVYYCQQWNSNPPTFGQGTKVEIKR | – | – | – | – | 0.4 nM | 1.3 nM | 61.3% | 81.6%
ADC4-13 (antibody, human IgG1, kappa, V domains shown, conjugator-linker-payload on cysteine thiols after TCEP reduction (DAR8), maleimide hydrolysed; residues not numbered; structure given only as a drawing) VH: QVQLVQSGAEVKKPGSSVKVSCKASGYTFTNYVMHWVRQAPGQGLEWMGYINPYNDDVKYNEKFKGRVTITADESTSTAYMELSSLRSEDTAVYYCARWGYYGSPLYYFDYWGQGTLVTVSS VL: EIVLTQSPATLSLSPGERATLSCRASSRLIYMHWYQQKPGQAPRPLIYATSNLASGIPARFSGSGSGTDFTLTISSLEPEDFAVYYCQQWNSNPPTFGQGTKVEIKR | – | – | – | – | 0.5 nM | 1.6 nM | 58.5% | 79.3%
ADC4-16 (antibody, human IgG1, kappa, V domains shown, conjugator-linker-payload on cysteine thiols after TCEP reduction (DAR8), maleimide hydrolysed; residues not numbered; structure given only as a drawing) VH: QVQLVQSGAEVKKPGSSVKVSCKASGYTFTNYVMHWVRQAPGQGLEWMGYINPYNDDVKYNEKFKGRVTITADESTSTAYMELSSLRSEDTAVYYCARWGYYGSPLYYFDYWGQGTLVTVSS VL: EIVLTQSPATLSLSPGERATLSCRASSRLIYMHWYQQKPGQAPRPLIYATSNLASGIPARFSGSGSGTDFTLTISSLEPEDFAVYYCQQWNSNPPTFGQGTKVEIKR | – | – | – | – | 0.6 nM | 1.5 nM | 62.2% | 76.4%
ADC4-10 (antibody, human IgG1, kappa, V domains shown, conjugator-linker-payload on cysteine thiols after TCEP reduction (DAR8), maleimide hydrolysed; residues not numbered; structure given only as a drawing) VH: QVQLVQSGAEVKKPGSSVKVSCKASGYTFTNYVMHWVRQAPGQGLEWMGYINPYNDDVKYNEKFKGRVTITADESTSTAYMELSSLRSEDTAVYYCARWGYYGSPLYYFDYWGQGTLVTVSS VL: EIVLTQSPATLSLSPGERATLSCRASSRLIYMHWYQQKPGQAPRPLIYATSNLASGIPARFSGSGSGTDFTLTISSLEPEDFAVYYCQQWNSNPPTFGQGTKVEIKR | 0.6 nM | 1.7 nM | 68.4% | 80% | – | – | – | –
ADC4-9 (antibody, human IgG1, kappa, V domains shown, conjugator-linker-payload on cysteine thiols after TCEP reduction (DAR8), maleimide hydrolysed; residues not numbered; structure given only as a drawing) VH: QVQLVQSGAEVKKPGSSVKVSCKASGYTFTNYVMHWVRQAPGQGLEWMGYINPYNDDVKYNEKFKGRVTITADESTSTAYMELSSLRSEDTAVYYCARWGYYGSPLYYFDYWGQGTLVTVSS VL: EIVLTQSPATLSLSPGERATLSCRASSRLIYMHWYQQKPGQAPRPLIYATSNLASGIPARFSGSGSGTDFTLTISSLEPEDFAVYYCQQWNSNPPTFGQGTKVEIKR | 0.8 nM | 2.8 nM | 78.8% | 81.4% | – | – | – | –
ADC4-8 (antibody, human IgG1, kappa, V domains shown, conjugator-linker-payload on cysteine thiols after TCEP reduction (DAR8), maleimide hydrolysed; residues not numbered; structure given only as a drawing) VH: QVQLVQSGAEVKKPGSSVKVSCKASGYTFTNYVMHWVRQAPGQGLEWMGYINPYNDDVKYNEKFKGRVTITADESTSTAYMELSSLRSEDTAVYYCARWGYYGSPLYYFDYWGQGTLVTVSS VL: EIVLTQSPATLSLSPGERATLSCRASSRLIYMHWYQQKPGQAPRPLIYATSNLASGIPARFSGSGSGTDFTLTISSLEPEDFAVYYCQQWNSNPPTFGQGTKVEIKR | 1 nM | 2.9 nM | 66.6% | 79.5% | – | – | – | –
ADC4-11 (antibody, human IgG1, kappa, V domains shown, conjugator-linker-payload on cysteine thiols after TCEP reduction (DAR8), maleimide hydrolysed; residues not numbered; structure given only as a drawing) VH: QVQLVQSGAEVKKPGSSVKVSCKASGYTFTNYVMHWVRQAPGQGLEWMGYINPYNDDVKYNEKFKGRVTITADESTSTAYMELSSLRSEDTAVYYCARWGYYGSPLYYFDYWGQGTLVTVSS VL: EIVLTQSPATLSLSPGERATLSCRASSRLIYMHWYQQKPGQAPRPLIYATSNLASGIPARFSGSGSGTDFTLTISSLEPEDFAVYYCQQWNSNPPTFGQGTKVEIKR | – | – | – | – | 1 nM | 2.1 nM | 62.4% | 85.6%

Source: US20250352659A1, “SELF-STABILIZING LINKER CONJUGATES” (priority 2023, published 2025)
